Target: recombinant His6-RFLAT-1 (C-terminal portion of RFLAT-1, amino acids 59-288)
Sequence (chain, as listed by the source): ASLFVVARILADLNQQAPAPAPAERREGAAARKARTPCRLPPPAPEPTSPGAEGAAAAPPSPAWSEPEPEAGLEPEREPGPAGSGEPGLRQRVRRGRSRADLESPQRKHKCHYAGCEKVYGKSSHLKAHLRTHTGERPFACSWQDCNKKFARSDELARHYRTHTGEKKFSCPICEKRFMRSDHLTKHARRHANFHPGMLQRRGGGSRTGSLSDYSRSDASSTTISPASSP

B1: ERK1 kinase (protein)
chain: MAAAAAQGGGGGEPRRTEGVGPGVPGEVEMVKGQPFDVGPRYTQLQYIGEGAYGMVSSAYDHVRKTRVAIKKISPFEHQTYCQRTLREIQILLRFRHENVIGIRDILRASTLEAMRDVYIVQDLMETDLYKLLKSQQLSNDHICYFLYQILRGLKYIHSANVLHRDLKPSNLLINTTCDLKICDFGLARIADPEHDHTGFLTEYVATRWYRAPEIMLNSKGYTKSIDIWSVGCILAEMLSNRPIFPGKHYLDQLNHILGILGSPSQEDLNCIINMKARNYLQSLPSKTKVAWAKLFPKSDSKALDLLDRMLTFNPNKRITVEEALAHPYLEQYYDPTDEPVAEEPFTFAMELDDLPKERLKELIFQETARFQPGVLEAP
In the case of B1, the “phosphorylation of recombinant RFLAT-1 by kinase (control)” value is reported as “As controls, ERK1 kinase does not”.

— patent US6376240
